In US8629107B2, “Genes and proteins associated with angiogenesis and uses thereof” (National Jewish Health, priority 2005, dated 2014):

Biological target: T1, Notch1 (Mus musculus, UniProt Q01705)
T1 construct: expressed in transfected cells; host or cells: human kidney 293T cells, transient transfection (LT-1 liposomes)
Assay: Notch1 processing assay in human kidney 293T cells
Format: cell-based
Conditions: co-expression with Notch1 and Jagged-1 in 293T cells
Method: To monitor the effects of MAGP-2 on the processing and S3 cleavage of Notch1, human kidney 293T cells were transiently transfected in 6-well plates with LT-1 liposomes containing 0.5 μg/well of Notch1 (pCS2+mN1FL6MT), 0.5 μg/well Jagged-1 (pCS2+Jag1-6MT), or 1.5 μg/well of MAGP-2 (pcDNA3.1-MAGP-2/Myc-His) in all combinations. Forty-eight h post-transfection, the cells were washed with ice-cold PBS, lysed immediately in Buffer H/1% Triton X-100 [500 μl/well; (Schiemann et al, 2002)], and incubated on ice for 30 min. Afterward, insoluble material was removed by microcentrifugation and 100 μl of the resulting clarified extract was fractionated through 6% SDS-PAGE gels. The fractionated proteins were transferred electrophoretically to nitrocellulose and probed with anti-Myc 9E10 monoclonal antibodies (Covance, Princeton, N.J.) to visual Notch1 cleavage species.
Activation of Notch1 signaling involves three proteolytic processing events, termed S1, S2, and S3, that produce three distinct Notch1 fragments, termed TMIC, NEXT, and NICD, respectively (Mumm et al, 2000). […] The inventors tested this possibility by transiently transfecting human 293T cells with cDNAs encoding Myc-tagged versions of Notch1, Jagged-1, and MAGP-2 in all combinations, and subsequently monitored changes in NICD production and accumulation by immunoblot analyses using anti-Myc monoclonal antibodies. […]

T1 sequence (Q01705 19-2531): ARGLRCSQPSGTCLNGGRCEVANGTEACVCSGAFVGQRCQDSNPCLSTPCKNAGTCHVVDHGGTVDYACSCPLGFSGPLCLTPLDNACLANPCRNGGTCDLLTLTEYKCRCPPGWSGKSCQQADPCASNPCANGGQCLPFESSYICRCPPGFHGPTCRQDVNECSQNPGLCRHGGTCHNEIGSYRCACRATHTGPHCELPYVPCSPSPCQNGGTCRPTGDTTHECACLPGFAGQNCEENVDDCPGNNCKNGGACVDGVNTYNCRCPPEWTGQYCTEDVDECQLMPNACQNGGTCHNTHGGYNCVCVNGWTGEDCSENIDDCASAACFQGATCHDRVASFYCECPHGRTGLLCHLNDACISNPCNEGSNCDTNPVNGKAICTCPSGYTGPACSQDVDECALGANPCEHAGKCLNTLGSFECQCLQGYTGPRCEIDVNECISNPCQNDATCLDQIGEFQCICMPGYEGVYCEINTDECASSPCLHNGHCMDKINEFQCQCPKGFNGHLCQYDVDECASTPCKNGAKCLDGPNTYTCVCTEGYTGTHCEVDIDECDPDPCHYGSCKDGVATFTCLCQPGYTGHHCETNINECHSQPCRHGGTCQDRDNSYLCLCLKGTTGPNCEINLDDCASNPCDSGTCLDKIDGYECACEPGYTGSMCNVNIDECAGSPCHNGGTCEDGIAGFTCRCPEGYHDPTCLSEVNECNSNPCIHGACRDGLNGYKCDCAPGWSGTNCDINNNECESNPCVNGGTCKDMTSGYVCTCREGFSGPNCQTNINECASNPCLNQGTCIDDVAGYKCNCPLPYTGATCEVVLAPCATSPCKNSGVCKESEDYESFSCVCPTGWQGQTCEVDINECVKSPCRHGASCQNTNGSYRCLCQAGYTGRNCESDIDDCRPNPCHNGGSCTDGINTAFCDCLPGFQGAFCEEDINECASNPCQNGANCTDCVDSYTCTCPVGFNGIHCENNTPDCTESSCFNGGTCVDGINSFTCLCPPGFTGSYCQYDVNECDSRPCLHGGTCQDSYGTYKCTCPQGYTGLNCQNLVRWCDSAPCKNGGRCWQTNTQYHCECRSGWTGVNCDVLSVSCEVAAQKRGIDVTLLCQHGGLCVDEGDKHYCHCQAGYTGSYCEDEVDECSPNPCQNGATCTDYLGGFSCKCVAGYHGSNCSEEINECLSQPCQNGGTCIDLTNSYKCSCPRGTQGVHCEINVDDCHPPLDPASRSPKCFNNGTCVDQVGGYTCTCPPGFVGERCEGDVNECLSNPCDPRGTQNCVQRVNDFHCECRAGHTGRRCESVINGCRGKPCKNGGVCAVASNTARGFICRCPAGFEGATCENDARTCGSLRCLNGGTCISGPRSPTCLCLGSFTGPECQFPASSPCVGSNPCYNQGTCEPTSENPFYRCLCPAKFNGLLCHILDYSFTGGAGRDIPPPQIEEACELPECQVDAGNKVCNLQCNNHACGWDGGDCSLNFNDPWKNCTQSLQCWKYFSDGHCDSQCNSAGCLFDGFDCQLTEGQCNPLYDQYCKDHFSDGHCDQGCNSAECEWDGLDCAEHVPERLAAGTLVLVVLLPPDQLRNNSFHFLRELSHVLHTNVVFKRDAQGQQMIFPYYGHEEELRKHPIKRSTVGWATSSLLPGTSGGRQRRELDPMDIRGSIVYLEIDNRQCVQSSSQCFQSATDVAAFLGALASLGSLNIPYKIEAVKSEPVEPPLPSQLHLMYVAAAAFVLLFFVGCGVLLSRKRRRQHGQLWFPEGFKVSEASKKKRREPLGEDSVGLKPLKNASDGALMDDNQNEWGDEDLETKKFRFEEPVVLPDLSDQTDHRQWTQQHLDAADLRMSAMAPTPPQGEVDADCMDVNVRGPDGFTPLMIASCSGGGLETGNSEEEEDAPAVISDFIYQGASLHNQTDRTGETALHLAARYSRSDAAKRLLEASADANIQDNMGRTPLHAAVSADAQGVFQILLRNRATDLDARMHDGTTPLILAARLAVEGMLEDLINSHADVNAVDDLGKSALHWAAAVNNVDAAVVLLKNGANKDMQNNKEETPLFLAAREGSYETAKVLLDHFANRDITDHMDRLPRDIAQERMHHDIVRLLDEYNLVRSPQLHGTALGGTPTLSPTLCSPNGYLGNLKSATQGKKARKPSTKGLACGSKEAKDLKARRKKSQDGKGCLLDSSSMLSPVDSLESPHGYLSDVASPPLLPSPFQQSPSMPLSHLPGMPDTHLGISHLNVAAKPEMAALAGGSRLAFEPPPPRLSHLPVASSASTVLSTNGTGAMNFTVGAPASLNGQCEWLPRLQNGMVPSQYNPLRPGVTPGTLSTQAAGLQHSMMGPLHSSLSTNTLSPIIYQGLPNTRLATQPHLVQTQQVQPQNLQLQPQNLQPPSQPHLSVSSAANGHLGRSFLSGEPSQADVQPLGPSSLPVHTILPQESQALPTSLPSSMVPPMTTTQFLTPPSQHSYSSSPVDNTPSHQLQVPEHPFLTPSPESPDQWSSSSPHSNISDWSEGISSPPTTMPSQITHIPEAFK

B1: MAGP-2: secreted glycoprotein (25 kDa); stably expressed in MB114 cells by bicistronic retroviral transduction, Myc-His tagged (protein)
chain: QRGDDVPETFTDDPNLVNDPSTDDTALADITPSTDDLAGDKNATAECRDEKFACTRLYSVHRPVRQCVHQSCFTSLRRMYIINNEICSRLVCKEHEAMKDELCRQMAGLPPRRLRRSNYFRLPPCENMNLQRPDGL
modifications: left off: small tags and cut ends
notes: secreted glycoprotein (25 kDa); stably expressed in MB114 cells by bicistronic retroviral transduction, Myc-His tagged
ability of Jagged-1 to induce Notch1 cleavage and NICD production: reduced significantly
